Measured values from patent US20260007756A1, “COMPOUND AND USE THEREOF” (COHERENT BIOPHARMA (SUZHOU) LIMITED, priority 2022, published 2026).
Converted amounts (≈) assume the structure as drawn. Like-named read-outs stand apart in the source and are kept apart here.

Columns and labels:
LNCaP = assay: Expansion inhibition of tumor cells (Example 9, CellTiter-Glo); type: cell-based, human; details: 72 h
Description: (§1) Information on cell lines: LNCaP (human prostate cancer cell) and VCaP (human prostate cancer cell)
(§2) Negative and blank controls were set.

VCaP = assay: as above; type: cell-based, human; details: 72 h
Description: as §1, §2

cathepsin B-human liver = cathepsin B-human liver (Homo sapiens, UniProt P07858); details: 37° C.
Description: • 1) The conjugate compounds were prepared into 500 μg/mL stock solutions with 0.1% TFA-acetonitrile water (1:1); • 2) 60 μL of 500 μg/mL compound stock solution was added to 536 μL of 50 mM NaOAc (containing 1 mM EDTA+10 mM Cys), before 4 μL of cathepsin B (CB enzyme) was added, and the mixture was well mixed by gentle shaking. • 3) The cleavage reaction system in step 2) was transferred to a thermostatic incubator at 37° C. for 0 h, 1 h, 2 h, 4 h, or 24 h of incubation. Samples were taken and loaded at various time points for LC-MS analysis.

22RV1 = type: cell-based, human; details: 22RV1, 72 h, CellTiter-Glo
Description: as §2

MDA-MB-231 = type: cell-based, human; details: MDA-MB-231, 72 h, CellTiter-Glo
Description: as §2

Plasma stability study 2 = type: in vitro ADME; details: mouse plasma, 37° C.; for remaining at 0.5 h, 100 μg/mL / remaining at 1 h, 100 μg/mL / remaining at 2 h, 100 μg/mL / remaining at 4 h, 100 μg/mL / remaining at 6 h, 100 μg/mL: read-out: Residual rate of principal component
Description: • 1) The conjugate compounds were prepared into 1 mg/mL stock solutions with 0.1% TFA-acetonitrile water (1:1); • 2) 10 μL of 1 mg/mL compound stock solution was added into 90 μL of fresh plasma, and the mixture was well mixed by gentle shaking, and transferred to a thermostatic incubator at 37° C. for 0 h, 0.5 h, 1 h, 2 h, 4 h, 6 h, or 24 h of incubation; • 3) at the time points, samples were taken out and 300 μL of methanol solution (containing 10 ng/ml of terfenadine) was added for protein precipitation; • 4) the mixture was centrifuged (13 min, 4° C., 12000 rpm) and the supernatant was collected, and preserved in a −80° C. refrigerator; after collection, the samples were loaded for LC-MS analysis.

Solubility study in PBS = type: physicochemical; details: aqueous buffer, thermodynamic from solid; PBS (pH 7.2 to 7.4); read-out: Solubility, concentration
Description: The mixture was vortexed for 2 min until the solid was dissolved. The solubility was calculated as: C=m/V, C: concentration, m: sample weight, V: PBS total volume.

C4-2 = details: C4-2, 72 h, CellTiter-Glo
Description: Cells were prepared in advance, trypsinized, collected, counted, diluted to 1.5×10^4 cells/mL in a complete cell culture medium, and plated in 96-well plates. The diluted cell suspension was added at 100 μL/well, and negative and blank control wells were set on each plate. The 96-well plates with the added cells were incubated overnight at 37° C. in a 5% CO2 incubator.
Samples were serially diluted with medium (serially 3-fold diluted from 10 μM) to 9 concentrations. The medium in the plates was discarded, and the drug solutions were added at 100 μL per well to a 96-well plate in triplicate. Negative and blank controls were set. The plates were incubated at 37° C. for 72 h in a 5% CO2 incubator.
The CellTiter-Glo buffer was thawed and warmed to room temperature, and the CellTiter-Glo substrate was warmed to room temperature. The CellTiter-Glo buffer was added to the flask containing CellTiter-Glo substrate to dissolve the substrate, thereby preparing a CellTiter-Glo working solution, which was then vortexed slowly to complete dissolution. The cell culture plates were equilibrated at room temperature for 30 min, before the CellTiter-Glo working solution was added at 50 μL/well (about half the volume of cell culture medium in each well). The plate was covered by aluminum foil to keep out of light. The culture plate was shaken on an orbital shaker for 2 min to induce cell lysis. The culture plate was left to stand at room temperature for 10 min to stabilize the luminescence signals. The luminescence signal was detected on a microplate reader (Molecular Devices SpectraMax iD5).
Four-parameter curves were fitted using GraphPad Prism 8.0.2 to give IC50 values.

sulfatase [1] = assay: in vitro; details: isolated sulfatase, pH 7.4
Description: (§3) • 1) The compounds were formulated into 500 μg/mL stock solutions with PBS (pH 7.4); • 2) 60 μL of 500 μg/mL compound stock solution was added to 420 μL PBS (pH 7.4), before 60 μL of 0.2 U/mL plasmin (or 60 μL of 0.5 U/mL sulfatase) was added, and the mixture was well mixed by gentle shaking; • 3) The cleavage reaction system in step 2) was transferred to a thermostatic incubator at 37° C. for 0 h, 1 h, 2 h, 4 h, or 24 h of incubation. Samples were taken and loaded at various time points for LC-MS analysis.

sulfatase [2] = details: PBS pH 7.4, 37° C.
Description: as §3

| Compound | IC50 (LNCaP; Homo sapiens) [nM] | IC50 (VCaP; Homo sapiens) [nM] | IC50 (22RV1) [nM] | IC50 (MDA-MB-231) [nM] | CR20274 release rate (actual release/theoretical release) (Plasma stability study 2; 0 h) [%] | Residual rate of principal component (Plasma stability study 2; 0 h) [%] | CR20274 release rate (actual release/theoretical release) (Plasma stability study 2; 0.5 h) [%] | remaining at 0.5 h, 100 μg/mL (Plasma stability study 2; 0.5 h) [%] | CR20274 release rate (actual release/theoretical release) (Plasma stability study 2; 1 h) [%] | remaining at 1 h, 100 μg/mL (Plasma stability study 2; 1 h) [%] | CR20274 release rate (actual release/theoretical release) (Plasma stability study 2; 2 h) [%] | remaining at 2 h, 100 μg/mL (Plasma stability study 2; 2 h) [%] | CR20274 release rate (actual release/theoretical release) (Plasma stability study 2; 4 h) [%] | remaining at 4 h, 100 μg/mL (Plasma stability study 2; 4 h) [%] | CR20274 release rate (actual release/theoretical release) (Plasma stability study 2; 6 h) [%] | remaining at 6 h, 100 μg/mL (Plasma stability study 2; 6 h) [%] | CR20274 release rate (actual release/theoretical release) (Plasma stability study 2; 24 h) [%] | Residual rate of principal component (Plasma stability study 2; 24 h) [%] | IC50 (C4-2) [nM] | IC50 (LNCaP) [nM] | also measured |
| --- | --- | --- | --- | --- | --- | --- | --- | --- | --- | --- | --- | --- | --- | --- | --- | --- | --- | --- | --- | --- | --- |
| Cc1ncsc1-c1ccc(C(C)NC(=O)C2CC(O)CN2C(=O)C(NC(=O)COCCCOCCNC(=O)CC2N=C(c3ccc(Cl)cc3)c3c(sc(C)c3C)-n3c(C)nnc32)C(C)(C)C)cc1 (stereo not shown) [CR202ES, ARV-771] | 8.7 | 10.9 | – | – | – | – | – | – | – | – | – | – | – | – | – | – | – | – | – | – | – |
| CC[C@@H]1C(=O)N(C)c2cnc(Nc3ccc(-c4cn([C@H]5CC[C@@H](N(CCOCCC#Cc6cccc7c6CN(C6CCC(=O)NC6=O)C7=O)C(=O)OCc6ccc(NC(=O)[C@H](CCCNC(N)=O)NC(=O)[C@@H](NC(=O)COCCOCCn7cc(C[C@H](NC(=O)[C@H](CCCCN)NC(=O)[C@H](CC(=O)O)NC(=O)[C@H](CC(=O)O)NC(=O)Cc8ccc(CNC(=O)NCCCC[C@H](NC(=O)N[C@@H](CCC(=O)O)C(=O)O)C(=O)O)cc8)C(=O)N[C@@H](CCCCNC(=O)CC[C@H](NC(=O)c8ccc(NCc9cnc%10[nH]c(N)nc(=O)c%10n9)cc8)C(=O)O)C(N)=O)nn7)C(C)C)cc6)CC5)nn4)cc3OC)nc2N1C1CCCC1 (stereo partly shown) [CR202V5] | – | – | 779 | 412 | 0.02 | 94.75 | 0.17 | 101 | 0.25 | 94.9 | 0.37 | 94.7 | 0.94 | 90.6 | 0.97 | 80.4 | 3.92 | −1.03 | 144 | – | CR20274 release rate of compounds after cleavage (cathepsin B-human liver; 0 h): 0%; Principal component residue of compounds after cleavage (cathepsin B-human liver; 0 h): 100.00%; CR20274 release rate of compounds after cleavage (cathepsin B-human liver; 1 h): 100%; Principal component residue of compounds after cleavage (cathepsin B-human liver; 1 h): 2.37%; CR20274 release rate of compounds after cleavage (cathepsin B-human liver; 2 h): 100%; Principal component residue of compounds after cleavage (cathepsin B-human liver; 2 h): 0%; CR20274 release rate of compounds after cleavage (cathepsin B-human liver; 4 h): 100%; Principal component residue of compounds after cleavage (cathepsin B-human liver; 4 h): 0%; CR20274 release rate of compounds after cleavage (cathepsin B-human liver; 24 h): 100%; Principal component residue of compounds after cleavage (cathepsin B-human liver; 24 h): 0%; solubility (Solubility study in PBS): 2800 µg/mL (≈ 941 µM) |
| CC[C@@H]1C(=O)N(C)c2cnc(Nc3ccc(-c4cn([C@H]5CC[C@@H](N(CCOCCC#Cc6cccc7c6CN(C6CCC(=O)NC6=O)C7=O)C(=O)OC(Cc6cn(CCOCCOCCNC(=O)COCCOCCn7cc(C[C@H](NC(=O)[C@H](CCCCN)NC(=O)[C@H](CC(=O)O)NC(=O)[C@H](CC(=O)O)NC(=O)Cc8ccc(CNC(=O)NCCCC[C@H](NC(=O)N[C@@H](CCC(=O)O)C(=O)O)C(=O)O)cc8)C(=O)N[C@@H](CCCCNC(=O)CC[C@H](NC(=O)c8ccc(NCc9cnc%10[nH]c(N)nc(=O)c%10n9)cc8)C(=O)O)C(N)=O)nn7)nn6)c6ccc(OS(=O)(=O)O)c([N+](=O)[O-])c6)CC5)nn4)cc3OC)nc2N1C1CCCC1 (stereo partly shown) [CR202W1] | – | – | 112 | 120 | 0.68 | 105.30 | 0.63 | 89.4 | 0.83 | 103 | 0.80 | 105 | 0.96 | 108 | 0.88 | 84.8 | 2.82 | −2.67 | 43.2 | – | remaining at 1 h, 55.6 µg/mL (sulfatase [1]): 89%; remaining at 2 h, 55.6 µg/mL (sulfatase [1]): 80%; remaining at 4 h, 55.6 µg/mL (sulfatase [1]): 69%; remaining at 24 h, 55.6 µg/mL (sulfatase [1]): 37%; CR20274 release rate of compounds after cleavage (sulfatase [2]; 0 h): 0%; Principal component residue of compounds after cleavage (sulfatase [2]; 0 h): 97%; CR20274 release rate of compounds after cleavage (sulfatase [2]; 1 h): 9%; CR20274 release rate of compounds after cleavage (sulfatase [2]; 2 h): 15%; CR20274 release rate of compounds after cleavage (sulfatase [2]; 4 h): 27%; CR20274 release rate of compounds after cleavage (sulfatase [2]; 24 h): 56%; solubility at 2 min (Solubility study in PBS): 8100 µg/mL (≈ 2650 µM) |
| Cc1ncsc1-c1ccc(CNC(=O)[C@@H]2C[C@@H](OC(=O)OCc3ccc(NC(=O)[C@H](CCCNC(N)=O)NC(=O)[C@@H](NC(=O)COCCOCCn4cc(C[C@H](NC(=O)[C@H](CCCCN)NC(=O)[C@H](CC(=O)O)NC(=O)[C@H](CC(=O)O)NC(=O)Cc5ccc(CNC(=O)NCCCC[C@H](NC(=O)N[C@@H](CCC(=O)O)C(=O)O)C(=O)O)cc5)C(=O)N[C@@H](CCCCNC(=O)CC[C@H](NC(=O)c5ccc(NCc6cnc7[nH]c(N)nc(=O)c7n6)cc5)C(=O)O)C(N)=O)nn4)C(C)C)cc3)CN2C(=O)[C@@H](NC(=O)CCCCCCCCCCNC(=O)c2cc3c(cc2CS(C)(=O)=O)-c2cn(C)c(=O)c4[nH]cc(c24)CN3c2ncc(F)cc2F)C(C)(C)C)cc1 [CR202W8] | – | – | – | – | – | – | – | – | – | – | – | – | – | – | – | – | – | – | – | 5.3 | IC50 (VCaP): 2.7 nM |
| Cc1ncsc1-c1ccc(CNC(=O)[C@@H]2C[C@@H](O)CN2C(=O)[C@@H](NC(=O)COCCCCOc2ccc(-c3ccc(N4C(=S)N(c5ccc(C#N)c(C(F)(F)F)c5)C(=O)C4(C)C)cc3)cc2)C(C)(C)C)cc1 [CR202Z5, ARCC-4] | 373 | 183 | – | – | – | – | – | – | – | – | – | – | – | – | – | – | – | – | – | – | – |
| Cc1ncsc1-c1ccc([C@H](CC(=O)N2CCC(N3CCC(C#Cc4ccc(C(=O)NC5C(C)(C)C(Oc6ccc(C#N)c(Cl)c6)C5(C)C)cc4)CC3)CC2)NC(=O)[C@@H]2C[C@@H](O)CN2C(=O)[C@@H](NC(=O)C2(F)CC2)C(C)(C)C)cc1 (stereo partly shown) [CR202Z9, ARD-69] | – | – | – | – | – | – | – | – | – | – | – | – | – | – | – | – | – | – | – | 418 | IC50 (VCaP): 12.4 nM |
